Results published in article PMC4299599, “Quantification of cytosolic interactions identifies Ede1 oligomers as key organizers of endocytosis” (Molecular Systems Biology, 2014).

What was measured:
[1] = target: T1, Pan1 (S. cerevisiae, UniProt P32521 1-1480); test: fluorescence cross-correlation spectroscopy (FCCS); in the cytoplasm of living yeast cells; first-named protein green (3myeGFP or 1myeGFP; eGFP for Don1), second red (3mCherry); self-interaction in diploid strains with one allele of each colour; apparent or effective KD (Kdeff) from single-cell measurements; only Kdeff values < 1000 nM are shown; values for self-interactions are upper limits; details: partners not purified
T1 construct: Pan1, S. cerevisiae; also called Pan1-1myeGFP; Pan1-3mCherry; source: chromosomally tagged at the endogenous locus, in the cytoplasm of living S. cerevisiae cells
T1 sequence (looked up): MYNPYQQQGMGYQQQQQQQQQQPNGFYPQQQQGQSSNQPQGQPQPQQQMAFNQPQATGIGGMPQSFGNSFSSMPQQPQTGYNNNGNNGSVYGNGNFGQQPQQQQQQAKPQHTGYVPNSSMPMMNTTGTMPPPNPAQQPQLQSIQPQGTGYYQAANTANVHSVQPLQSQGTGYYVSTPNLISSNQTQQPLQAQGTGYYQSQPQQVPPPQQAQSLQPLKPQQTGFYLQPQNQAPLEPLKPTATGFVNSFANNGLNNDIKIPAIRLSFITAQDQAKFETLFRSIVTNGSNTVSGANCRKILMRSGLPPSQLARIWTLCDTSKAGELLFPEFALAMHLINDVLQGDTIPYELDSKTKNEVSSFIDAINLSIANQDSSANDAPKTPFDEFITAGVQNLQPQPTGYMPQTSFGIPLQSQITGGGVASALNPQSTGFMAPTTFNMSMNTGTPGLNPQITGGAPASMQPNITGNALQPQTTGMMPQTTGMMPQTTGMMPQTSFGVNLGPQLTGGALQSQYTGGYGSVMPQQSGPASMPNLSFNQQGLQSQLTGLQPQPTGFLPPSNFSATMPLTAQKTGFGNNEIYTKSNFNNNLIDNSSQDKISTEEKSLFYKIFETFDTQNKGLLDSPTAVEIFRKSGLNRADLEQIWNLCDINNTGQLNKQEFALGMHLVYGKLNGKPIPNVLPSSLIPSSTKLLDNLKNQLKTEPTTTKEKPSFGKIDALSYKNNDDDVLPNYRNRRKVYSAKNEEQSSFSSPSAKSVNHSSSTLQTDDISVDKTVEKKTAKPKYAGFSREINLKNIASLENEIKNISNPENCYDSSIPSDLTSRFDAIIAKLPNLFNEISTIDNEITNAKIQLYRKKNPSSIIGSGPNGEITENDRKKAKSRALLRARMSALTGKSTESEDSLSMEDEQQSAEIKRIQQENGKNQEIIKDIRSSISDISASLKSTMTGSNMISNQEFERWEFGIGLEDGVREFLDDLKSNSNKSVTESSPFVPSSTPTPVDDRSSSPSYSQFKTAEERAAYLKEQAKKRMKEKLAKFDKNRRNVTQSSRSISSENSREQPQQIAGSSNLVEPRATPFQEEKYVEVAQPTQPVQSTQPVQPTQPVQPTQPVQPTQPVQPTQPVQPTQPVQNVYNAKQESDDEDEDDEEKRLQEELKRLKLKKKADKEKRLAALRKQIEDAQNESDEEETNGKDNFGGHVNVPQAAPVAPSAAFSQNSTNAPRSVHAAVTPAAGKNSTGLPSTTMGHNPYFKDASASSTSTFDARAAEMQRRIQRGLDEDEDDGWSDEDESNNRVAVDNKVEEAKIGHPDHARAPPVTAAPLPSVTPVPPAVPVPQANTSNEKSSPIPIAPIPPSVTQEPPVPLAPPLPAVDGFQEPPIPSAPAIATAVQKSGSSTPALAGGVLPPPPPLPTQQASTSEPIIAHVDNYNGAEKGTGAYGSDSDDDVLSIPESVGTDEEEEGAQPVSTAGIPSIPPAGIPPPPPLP

[2] = target: T2, Sla2 (S. cerevisiae, UniProt P33338 1-968); test: as above; details: partners not purified
T2 construct: Sla2, S. cerevisiae; also called Sla2-3myeGFP; Sla2-3mCherry; source: chromosomally tagged at the endogenous locus, in the cytoplasm of living S. cerevisiae cells
T2 sequence (looked up): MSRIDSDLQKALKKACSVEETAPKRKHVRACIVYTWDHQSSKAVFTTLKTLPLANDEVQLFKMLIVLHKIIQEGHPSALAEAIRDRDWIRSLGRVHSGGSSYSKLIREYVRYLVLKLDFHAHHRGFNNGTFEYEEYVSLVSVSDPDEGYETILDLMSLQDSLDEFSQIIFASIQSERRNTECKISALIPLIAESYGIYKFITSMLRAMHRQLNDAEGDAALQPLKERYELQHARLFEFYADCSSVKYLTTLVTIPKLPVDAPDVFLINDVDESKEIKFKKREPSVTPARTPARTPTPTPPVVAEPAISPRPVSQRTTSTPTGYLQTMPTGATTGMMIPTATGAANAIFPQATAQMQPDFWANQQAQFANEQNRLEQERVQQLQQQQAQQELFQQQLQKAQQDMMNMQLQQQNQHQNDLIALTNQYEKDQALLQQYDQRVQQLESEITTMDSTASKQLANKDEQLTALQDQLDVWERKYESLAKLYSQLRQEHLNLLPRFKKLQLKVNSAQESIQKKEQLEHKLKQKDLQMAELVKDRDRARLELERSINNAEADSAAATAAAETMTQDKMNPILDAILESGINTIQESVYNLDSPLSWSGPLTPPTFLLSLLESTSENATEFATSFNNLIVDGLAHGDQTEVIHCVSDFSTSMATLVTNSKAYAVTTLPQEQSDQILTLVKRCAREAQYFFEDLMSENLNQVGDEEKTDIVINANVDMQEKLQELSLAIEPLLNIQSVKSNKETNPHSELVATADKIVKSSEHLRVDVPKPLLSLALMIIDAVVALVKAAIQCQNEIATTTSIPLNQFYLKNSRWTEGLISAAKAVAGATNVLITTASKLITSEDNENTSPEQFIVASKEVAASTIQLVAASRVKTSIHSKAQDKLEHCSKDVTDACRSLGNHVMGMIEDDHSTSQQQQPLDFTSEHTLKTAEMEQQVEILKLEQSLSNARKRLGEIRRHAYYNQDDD

B1: End3 (natural protein, S. cerevisiae, UniProt P39013 1-349, looked up)
chain: MPKLEQFEIKKYWQIFSGLKPIENKVNHDQVLPILYNSKLDSSVLNKIWFLADIDDDDNLDFEEFVICMRLIFDMVNKNISSVPDELPDWLIPGSKVNLIKERKKRKQIENADLPPKKEIKVDWYMSPDDLNQYEKIYNSCAKLTDGTITFNELSTKLSTKFFNISKTDLNKVWSLINPQNLPSIDRDPTFYFIHCLRQRNDLGAEIPASLPNSLAEVCNKKQLSYDLRSSQPPTKRKEEANEVDNLRDNGQNSSSDSSGSNVLSNEDSIKQKYASLTDDQVANMREQLEGLLNYKKSEKTQGGSKLSKRINIRSITDDLDNIEQQVEVLENYLNNKRHELQALQAEIN
notes: End3, S. cerevisiae; also called End3-3myeGFP; End3-3mCherry; source: chromosomally tagged at the endogenous locus, in the cytoplasm of living S. cerevisiae cells
Q: For B1, which Kd [1] is on record?
A: Its Kd is 27 nM.

Q: What about the Kd [2] of the same binder?
A: Its Kd is 622 nM.
